According to paper PMC5111828:

Experiments:
[1] = target: Bcl-2 associated athanogene 3 (Bag3) (UniProt O95817); assay: flow cytometry protein interaction assay
Hsp90 (Homo sapiens) = Hsp90 (Homo sapiens) (UniProt P07900); assay: size exclusion chromatography; settings: cited from earlier work
Bag3 (Homo sapiens) [2] = target: Bag3 (Homo sapiens) (UniProt O95817); assay: ITC; settings: cited from earlier work
Bag3 (Homo sapiens) [3] = target: Bag3 (Homo sapiens) (UniProt O95817); assay: APCE; settings: cited from earlier work
[4] = target: Bcl-2 associated athanogene 3 (Bag3) (UniProt O95817); assay: cross-linking
Hsp70 Alexa Fluor 488 = Hsp70 Alexa Fluor 488 (UniProt P0DMV8); assay: cross-linking

Sequence of Hsp70 (P0DMV8 2-641): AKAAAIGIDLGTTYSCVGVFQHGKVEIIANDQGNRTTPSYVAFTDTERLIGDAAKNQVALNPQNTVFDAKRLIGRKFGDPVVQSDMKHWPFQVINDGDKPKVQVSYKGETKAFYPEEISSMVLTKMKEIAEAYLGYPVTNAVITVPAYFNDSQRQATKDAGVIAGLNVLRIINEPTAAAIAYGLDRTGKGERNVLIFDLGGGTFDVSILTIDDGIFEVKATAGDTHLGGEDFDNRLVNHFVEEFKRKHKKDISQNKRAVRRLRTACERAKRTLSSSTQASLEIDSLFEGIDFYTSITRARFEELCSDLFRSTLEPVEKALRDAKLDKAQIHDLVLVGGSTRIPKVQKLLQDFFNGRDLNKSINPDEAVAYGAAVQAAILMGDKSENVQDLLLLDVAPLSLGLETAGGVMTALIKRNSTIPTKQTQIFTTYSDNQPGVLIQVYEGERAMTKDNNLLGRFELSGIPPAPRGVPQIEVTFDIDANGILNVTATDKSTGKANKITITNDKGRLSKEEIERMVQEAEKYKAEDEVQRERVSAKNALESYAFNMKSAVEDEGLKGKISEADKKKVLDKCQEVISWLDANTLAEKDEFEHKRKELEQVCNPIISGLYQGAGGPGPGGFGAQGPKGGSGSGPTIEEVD

unlabeled Hsp70 (Wild-Type) (from UniProt P0DMV8 1-641) (natural protein)
Ki [1]: 15 nM

Hsp90 (from UniProt P07900)
Kd (Hsp90 (Homo sapiens)): 60 nM

Hsp70 (from UniProt P0DMV8)
Kd (Bag3 (Homo sapiens) [2]): 15 nM | Kd (Bag3 (Homo sapiens) [3]): 23 nM

Hsp70 E,D 283, 292 A,A (from UniProt P0DMV8 1-641) (natural protein)
Ki [4]: 160 nM

Hsp70 R,R 258,262 A,A (from UniProt P0DMV8 1-641) (natural protein)
Ki [4]: 400 nM

Bcl-2 associated athanogene 3 (Bag3) (from UniProt O95817 1-575) (natural protein)
Kd (Hsp70 Alexa Fluor 488): 25 nM
